Laboratory results reported in PMC4239642, “trans-Acting Arginine Residues in the AAA+ Chaperone ClpB Allosterically Regulate the Activity through Inter- and Intradomain Communication” (The Journal of Biological Chemistry, 2014).

Tests used:
[1] = target: cross-linked NBD1-M dimer with Walker B mutation E271Q in the cross-linked interface (Thermus thermophilus) (UniProt Q9RA63); experiment: SEC-MALS; Superdex 200 10/300 GL with multiangle static light scattering (SLS), buffer A (50 mM Tris/HCl pH 7.5, 50 mM KCl, 5 mM MgCl2, 2 mM EDTA); running buffer nucleotide-free or with 2 mM ADP or 2 mM ATP; 40 μl of 100 μM injected, about 2 μM at the detector; self-association induced by nucleotide; conditions: scale: NBD1-M subunits
[2] = target: cross-linked NBD1-M dimer with Walker B mutation E271Q in the free interface (Thermus thermophilus) (UniProt Q9RA63); experiment: as above; conditions: scale: NBD1-M subunits

| stoichiometry N [1] | stoichiometry N [2] | Substance |
| --- | --- | --- |
| 4 |  | cross-linked NBD1-M dimer with Walker B mutation E271Q in the cross-linked interface (from UniProt Q9RA63 141-534; Q9RA63 141-534) (complex) |
|  | 4 | cross-linked NBD1-M dimer with Walker B mutation E271Q in the free interface (from UniProt Q9RA63 141-534; Q9RA63 141-534) (complex) |
